Assay: soluble fraction after stress (log2 fold change); higher = more stays soluble; pooled small domains, quantitative proteomics
Conditions: stress: 50 degC
Outline: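 Pooled custom libraries of small protein domains were measured in a high-throughput format, with quantitative proteomics as the read-out. Each library was stressed at 50°C. Aggregation propensity is given as the base-two logarithm of the fold change in how much of each protein stays soluble after the stress. Higher values mean a larger share of the protein remains in solution.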

Sequence	soluble fraction (log2)
HMRFMRVSQSKSKNSTSLYIIESVYTKDNKHTTRIVKKLGTVEELSKEHEDPLAWAKEVAKQMTEEAEQN	-0.347
HMGTAGLSPWHKIAVLMIALGPEGASELMRHFGEDEVEQVVQAIADLKNVPSELQDAVLLEMEGALQEG	-0.00851
HMQYRQRRGLERMELILDAATRVVAEVGYERTTTNAIATRAGISPGSLYQYFSSKEDIASALWERYAE	-0.23
HMKLSNELLNAIMLIKKGIRNPTSLAQRLNTDTQYAKNLLEHLKMTGLINEHSRLTSRGLDIFHQK	0.163
HMALEVPGIAKDKIYRIFGQLYERQQKWEDAIDYYNRAVFFTLSGTDMILYQEDLSRVKQKISL	-0.0269
HMDLDPVEKLHLLSQLYVGQLKGSFVVKEKNQKTTIIGEVRELSHQTLSIRTNEGYRLIEVADILEIRLWE	-0.221
HMSEIYVDDINRKILYLLSQGIKTKSLLEHIPLSMSGIEKRKKQLKMLFSVEDGKDETLLEMAKEKGF	-1.45
HMPENESPEEKHARFRRFAEGLMARLDENESVRDILPELKVWLDDRELDRDDQRLARNLMLTAGKRE	0.0802
HMKNYALHEPMMDRIAKVNALYDAGHTIKYMTARGAVSMVDYYDLTKSQLDSWGAKYHELSVGK	-0.0372
HMKLELSNDFYNKIRLARKENGLTQEDLAEKLNMKVGVIQKIENGVRQTDSNLMKISKFLGVEIYVE	-1.46
HMKMTFGENLHKLRKIYRLSQEDVASAINLKRSDIAAVEKGDRVLNDEELDKLADFIGIDIVDLL	-0.193
HMSMVGNIEKILVTGESKKSSELLAGRTENNRVVNFTGEKVLIGSMVNVRIEEVFPNSLGGSYLPS	-0.16
HMEALASESVKDKIRKIIDSEDPSRPMSDQRIKEMLKAANIDIARRTVTKYREAMNILSSTKRRQV	-0.272
HMVRKIRARLVLQLRAEGLSGRAIAGSQGMSRKSVTAVLDAADRAGIGWDEIAERSEGEVYALLFPGRG	-1.34
HMFERINLIGVNGTTKKRSALVRLLDGEIVKIGVGDSLNGGQVVDISPATLTYLKSGKSIMLTLPK	-1.03
HMPKSVRQSFVYSPMYRDVEYLADFLRNNNKDDSSVSASGDKLVYYGTADEIARVKSVLKGVDV	-0.026
HMGQQPPVTEIYKNHDGNKDGLLEAGEVTGSRYARQFPRWDVNGDQKVSPQEVIAFRKRFGIAADGTLL	-0.0225
HMVGKIVVPHLEGKPAEMARDILARDGFKSVHEEVLPSAEFGAGRVVRTEPHAGTNVAKTDPVTIFVSVGL	-0.00887
HMEIGLIRVDSRLIHGQVITKWLNYSKANVIVVVDDELSKDSFMSEIYKASAPNGIIVEILSIDDFMKNT	0.00544
HMAVVEVATTTATEYKVEKGHHFKVGDFVMFKTGAKSYAITAIDTTSPIFDKITVGTTLGEAIPVGGTLM	-1.38
HMNLLDYTTLYVTSDGKSVSFGIAGKEIPVSYIAQEAPGTVVIDDTIRIPRKYDMEYILKRFNES	-1.03
HMTENLELLATGSLWTEPDGSGKIISYLIPGLRVKKLETNGIFYKIQLQNGLIGWADQSLFTIAEPK	-0.0642
HMPKITTIHIDPEKISKVIGPGGKTVKKIIEETGAKIDIEDTGKIFIAAVNTEAANKAIDMINGIVA	0.103
HMFNEFEDIPDIISAEGIDPAMREEVAANLKKYYKNPDAMLALAPLEREYYEKLVGILSEKIELKKEN	0.563
HMKGSYTVKSGDNLWSIARKFYGGSGSTWTKIYSANKSTIESTARRYGRSSSDNGHWIYPGTVLVIP	0.0541

Sequence	soluble fraction (log2)
HMEKRIIMLEELKKQVYEANMELPRRGLITYTWGNVSGIDRESGNFVIKPSGVDYDKLKPEDMVVMDL	-0.0887
HMDISEIEKRLLDFLEMPRSRKEIAEHLGIRTISYAIQTYITPLIDKKLVKMTIPESPRSHSQQYVRIN	-0.92
HMSVKSVSLRKISYKVRRGDSLYNIAKNFSLSINDITHWNSINKKSYLQPGQRLTLYINPRN	-1.71
HMDPDAIVSKGQLGALNNAIGRFIAQGGSQTVVDKGIAKRNPNAKKPADLTNSQAESLEAAILKILNG	0.515
HMESYTGLAVTEDDDGWSNVRSGNSTSYSILFKIYAGEKFNILSNDGKWSYIDFNGRKGYIHNSIIRKY	-3.87
HMIQKTHPALEIVKEYFSSQAASEFEAERFFNYYTSNGWLIGGKTKMKDWQAAARNWILNTAK	-0.199
HMHKTEIKIPSREDILAVLRQAQAPLTREQVFEHLKLTEDQIPIIEKRLNAMERDGQLMPNRKGMLLLSTK	0.266
HMDTFEITVEESDIDKRIDLFLAGNLESFSRSYIQDLIKKGKATISGKPVKANYRLREGDSVVLSIPKPK	-0.227
HMLTLEDMTRINSIISPRIKKGQSLYHIAKNNGDELNISESTLRRLVMTGEMDAGIIDLPQAVK	-0.138
HMKYKTKRDMILALMKKEILSGELKPRTRLLISEVASRYEVSEIPVREAFQVLIQEDLVRSTGAGFEVT	-0.744
HMDDAVSHPDAGHIVTVTKVSADGTAEVMYRGASWRAKTADGSPLTAGSARIVRVDGAALVVEP	0.052
HMAIGTDPETGISVVADGTDFIWTRSGATSTIFLRLDSENSYILNVKQGDFEVIDYELGEGQENAINIDQS	-0.0311
HMVDWTFPVLVKDVVMMGRYGHMGFLRIPGKKDFESVDNALAKVGMVEYAKQQIGELSGGQR	-0.0772
HMDSFEEGTYRKNQRGFGFVKIENQEDEIFISKENSLNALNGDRVIVEIIEDKDRTKRAEGKIKKILKHE	0.201
HMDTPVYYYVNGNGVRMRKDASLESDILILLYKGTKVEYVDVKGEWIKVKYNNEIGYIRNDLLSAEMPD	-0.0872
HMSGTYIATVEAGSLDIYKSMTSNETIGKASRGDVFQILEDMGSGYARVSYNDVEGYMSIKTGDASIEEL	-0.203
HMHRNLSFEEEKEFLSAYTKQAEAGQIVDLNEMKAAYIEKVGHSIGGSQIYRMLERHGWRKVM	-0.312
HMNNSVAYSTFLNDIRTNTLKDVDMTSNSETINVTKKDGTKYQTVMPMYDRDLLADLSKTDATVTGQP	0.28
HMFDGVAAGKPAILDALEDAGGFLPLNSKSSVEEIQASFSFSKRVFKQLIGMLYKERKIVITDDGIRLAD	-0.352
HMADLTEEQKTLFRLIRDLQPVSSKTLLENSGFTRSTQTRLLNGLIEKQIVIRTGNGPATRYSLR	-0.246
HMKVSFEIEINGVTKSINSINEAKEAISELQDIMDNSTFGSEEFKNAATQIDKLQNKLVEALDK	-0.0374
HMLGSQQAYTDALRLTGLPVDIEVIESDRLPFLIPMRYSLDQHLIEVNVRYPDTRAIRVQQMVEELFHA	-0.624
HMIDTLEYIISEESKGLRADQAITMVNGEFSRSLIQKWIKKGSILVNGKKIKPRDILNLNDKVTINPEEN	-0.0699
HMGRENGTVKWFNTSKGFGFITRDDGGDVFVHFRSIQGEGHRALQEGQRVSYVVANRDKGLQAEDVTILN	0.131
HMKSVLDDVAGLGPVRKKALLKAMGGFTRLRAASLDDILAVRAVPEEVAREVFAVLAQYNSVRNNDISE	-0.273

Sequence	soluble fraction (log2)
HMKSKHENLIDGLLKMISSMKPHDRLTPERQLAEEWAVSRMTLRRALEVLQFQGKIYTVPSSGLFVAEPK	-2.29
HMENIEVDFGVGDTVSVIGGAWKDTVGVVQAMNPNKQSLTINVELFGRETPVEISFTDVQKM	-0.0126
HMKIKAKYTTDFGIRIYAPKPGKNYWRISYVDLDGKLRDTTATSEKTALDKSAEIEVLLRNN	-1.89
HMEIFYSARAWAKLNDLVATRTYLQHLGAIAGRIGRSEGLSPDRIPDGRDGAVNGWPLWVWDRAYAEVS	-2.89
HMLAKYEIIKQDIIQMIEEKKFKPGDKIYSEGELKKIYNVSSTTVVRALQDLVLSGYLIRKQGEGTYVRK	-1.23
HMTLTIEDQLRRLRARLGRGRAFLFSDVLVNPHDRTEIAVTLLALLELIKRREAQASQSYLFGPIEVAAA	-1.94
HMGNFFDSAILALKNAIQENYGGNVSQAARSLGISVPTLHTWIKGDRKPSLEKLSPILDALNAKIVL	-0.726
HMSEKYPPIDWNNIKTGQSVLIKDINQVVSLTKLPDSKGFAEVQMGLIKTKIKAEKLAATDKKPNK	0.0917
HMAVEQLKSQIGGFLKANREQSFSAQNMADGLRMNSAAGYQDVVNAMNALVRDGEAVEKDGQFSYNVN	0.15
HMNPFPDNTAEVLSQFKNIIVPELNTGQLSKLLRARYLVDTVGINKVEGLPFTAQELEEKIESLINSF	-0.323
HMEDAWMKKELWDAIATLPKKQRLVMTMRLTNNHSYKEIAAILGISENSAKVSYHHAVERLKEKFK	-1.33
HMISKRFQIDEENAHKRIDIFLSHEFDSISRGIVQELIVKGEVLVNDKVTKRNYKLKTGDLVDITINL	-2.59
HMTEDNDLETIAYDILKERNLNNININVKNGVLNIYGKTETLKEKREIEKILSSLNVSKINNLIKI	0.315
HMGSNTLEDAYKVLGITPDATDDEVRKAYKKMVIQHHPDKVANLGEDVKKAATIKLQEINNAKEIIFKARN	0.139
HMSTLTLTSGTYAVGENIKAGKYTIMGSGSIAISSSGKARVNSNLTADRKDYVLNDDETIKIKGKAQFIPI	0.11
HMAPREELIAIHEALDKLEREDPQVSQLVKLRYFVGMTMAEAADAMDLKKRAAEALWTYGKAWLHREIKKN	-2.85
HMDSGLLSAREREVAGLVLSGMTYAEIGEAIFISPRTAEHHIARIRRRLGATSRTDLIAKLQAIVGID	-3.45
HMDLHSQVFESYERKIREVLREGPLTFEEILHAFALKRHETVAQVITYLMDEGKMSDSGDGKLIYSG	-0.558
HMRFANGHLIWDTIIELRNAERRINRRALADLTGLKPGVVDDHVERWIEKDQLRRAGNGELEVV	-0.943
HMNKADFLRKLDRELSVLDQEERKEILSFYEERFYTGTNYENKTELDIINELENPEIIAKNVLEEYGV	-0.154
HMERFLENAIPVLGETGLDIKSATEDFENALIRQALHLSGGNKNRAATLLGLKRTTFVEMLKRKSL	-0.806
HMQKAEQIGSLLREKRKSMGLTQDELAQQVEVRRQTLADLELGKNVGSHLLIKVMEHLGVGFDLL	-0.192
HMGEPVEIEEPITVRSLSEALGLKSSAIISHLMRQGVFATINQNLDKETAELIAAEYGIELRIK	0.00995
HMPVEQVWHIAEAGKTKGPFSRASMGRMSADGALTRDTLVWTAGQDGWKKAADVTALATLFT	-0.0223
HMFSWRQHLDHFGFSDEIKKRLADAVFLNDDWNEIDRGVLTKEELLARFIENDPGIEKEIYMVMENIN	-0.509
